Here are results for 94 variants from the supplement of paper PMC10567573.

The chains are these.
B1: RTN2 (parent)
chain: SERPLEDLRLRLDHLGWVARGTGS
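Also: lentivirally expressed fusions sorted by FACS into six bins by GFP to DsRed ratio, PSI derived from sequencing read proportions per bin multiplied by bin number.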

The variants in this series derive from B1. As to the kind of experiment: protein stability index of a GFP-peptide fusion (GPS, HEK-293T) (PSI 1-6); higher = more stable. As to conditions: c terminus: a fixed tail appended.
Turning to SERPLEDNRLRLDHLGWVARGTGS, the protein stability index is 2.13.

For SERPLEDYRLRLDHLGWVARGTGS, the protein stability index amounted to 2.35.

For SERPLEDDRLRLDHLGWVARGTGS, the protein stability index was determined as 2.32.

As to SERPLEDKRLRLDHLGWVARGTGS, the protein stability index was determined as 2.83.

Turning to SERPLEDIRLRLDHLGWVARGTGS, the protein stability index amounted to 2.44.

For the variant SERPLEDHRLRLDHLGWVARGTGS, the protein stability index was 2.16.

SERPLEDFRLRLDHLGWVARGTGS: the protein stability index came to 1.96.

For the variant SERPLEDVRLRLDHLGWVARGTGS, the protein stability index was 1.64.

In the case of SERPLEDARLRLDHLGWVARGTGS, the protein stability index came to 2.73.

As to SERPLEDWRLRLDHLGWVARGTGS, the protein stability index was determined as 1.87.

SERPLEDQRLRLDHLGWVARGTGS: the protein stability index was 1.47.

In the case of SERPLEDERLRLDHLGWVARGTGS, the protein stability index was determined as 3.52.

Consider SERPLEDLRLRLDELGWVARGTGS, for which the protein stability index stood at 2.61.

As for SERPPEDLRLRLDHLGWVARGTGS, the protein stability index worked out at 2.07.

Consider SERPMEDLRLRLDHLGWVARGTGS, for which the protein stability index was 2.46.

For SERPDEDLRLRLDHLGWVARGTGS, the protein stability index was 3.44.

For SERPWEDLRLRLDHLGWVARGTGS, the protein stability index was determined as 1.97.

Consider SERPFEDLRLRLDHLGWVARGTGS, for which the protein stability index came to 3.45.

In the case of SERPTEDLRLRLDHLGWVARGTGS, the protein stability index was found to be 2.38.

As for SERPNEDLRLRLDHLGWVARGTGS, the protein stability index came out at 1.48.

As for SERPGEDLRLRLDHLGWVARGTGS, the protein stability index was 2.33.

Take SERPVEDLRLRLDHLGWVARGTGS: the protein stability index was determined as 4.48.

Turning to SERPYEDLRLRLDHLGWVARGTGS, the protein stability index came out at 2.53.

Regarding SERPSEDLRLRLDHLGWVARGTGS, the protein stability index was 2.

On to SERPIEDLRLRLDHLGWVARGTGS, for which the protein stability index was determined as 2.52.

Turning to SERPLEDLRLRKDHLGWVARGTGS, the protein stability index worked out at 3.13.

Turning to SERPLEDLRLRADHLGWVARGTGS, the protein stability index was 2.97.

Consider SERPLEDLRLRYDHLGWVARGTGS, for which the protein stability index stood at 3.11.

Take SERPLEDLRLRIDHLGWVARGTGS: the protein stability index amounted to 2.02.

As for SERPLEDLRLRTDHLGWVARGTGS, the protein stability index was 3.51.

Consider SERPLEDLRLRRDHLGWVARGTGS, for which the protein stability index worked out at 2.16.

For the variant SERPLEDLRLRPDHLGWVARGTGS, the protein stability index worked out at 2.47.

Consider SERPLEDLRLRWDHLGWVARGTGS, for which the protein stability index was determined as 2.38.

For SECPLEDLRLRLDHLGWVARGTGS, the protein stability index came out at 2.4.

For SEDPLEDLRLRLDHLGWVARGTGS, the protein stability index is 2.82.

Take SEPPLEDLRLRLDHLGWVARGTGS: the protein stability index is 3.56.

For SENPLEDLRLRLDHLGWVARGTGS, the protein stability index was 2.48.

For the variant SELPLEDLRLRLDHLGWVARGTGS, the protein stability index came to 2.49.

For SEHPLEDLRLRLDHLGWVARGTGS, the protein stability index stood at 2.76.

Regarding SEFPLEDLRLRLDHLGWVARGTGS, the protein stability index is 2.18.

With SEAPLEDLRLRLDHLGWVARGTGS, the protein stability index amounted to 3.86.

With SEKPLEDLRLRLDHLGWVARGTGS, the protein stability index amounted to 1.63.

Regarding SEGPLEDLRLRLDHLGWVARGTGS, the protein stability index came out at 2.19.

With SEWPLEDLRLRLDHLGWVARGTGS, the protein stability index stood at 1.62.

Regarding SEQPLEDLRLRLDHLGWVARGTGS, the protein stability index came out at 2.

In the case of SEMPLEDLRLRLDHLGWVARGTGS, the protein stability index worked out at 2.99.

SEYPLEDLRLRLDHLGWVARGTGS: the protein stability index was 1.86.

Turning to SESPLEDLRLRLDHLGWVARGTGS, the protein stability index amounted to 2.07.

As for SERPLEGLRLRLDHLGWVARGTGS, the protein stability index was determined as 1.96.

On to SERPLEQLRLRLDHLGWVARGTGS, for which the protein stability index stood at 1.43.

In the case of SERPLEWLRLRLDHLGWVARGTGS, the protein stability index turned out to be 1.29.

Consider SERPLEMLRLRLDHLGWVARGTGS, for which the protein stability index stood at 1.02.

Consider SERPLETLRLRLDHLGWVARGTGS, for which the protein stability index turned out to be 1.88.

Take SERPLENLRLRLDHLGWVARGTGS: the protein stability index is 1.99.

For the variant SERPLEHLRLRLDHLGWVARGTGS, the protein stability index was 1.87.

Consider SERPLERLRLRLDHLGWVARGTGS, for which the protein stability index stood at 1.79.

In the case of SERPLEALRLRLDHLGWVARGTGS, the protein stability index was 1.94.

Take SERPLEVLRLRLDHLGWVARGTGS: the protein stability index was 1.9.

Take SERPLEDLDLRLDHLGWVARGTGS: the protein stability index was found to be 2.31.

On to SERPLEDLWLRLDHLGWVARGTGS, for which the protein stability index was found to be 1.64.

Consider SERPLEDLKLRLDHLGWVARGTGS, for which the protein stability index is 1.92.

Take SERPLEDLHLRLDHLGWVARGTGS: the protein stability index was found to be 2.56.

Regarding SERPLEDLVLRLDHLGWVARGTGS, the protein stability index amounted to 3.31.

For the variant SERPLEDLTLRLDHLGWVARGTGS, the protein stability index was determined as 2.27.

In the case of SERPLEDLNLRLDHLGWVARGTGS, the protein stability index is 2.84.

For the variant SERPLEDLSLRLDHLGWVARGTGS, the protein stability index was found to be 1.2.

Consider SERPLEDLILRLDHLGWVARGTGS, for which the protein stability index amounted to 2.17.

As for SERPLEDLELRLDHLGWVARGTGS, the protein stability index came out at 2.85.

Regarding SERPLEDLMLRLDHLGWVARGTGS, the protein stability index was 1.42.

For SERPLEDLCLRLDHLGWVARGTGS, the protein stability index turned out to be 3.37.

Regarding SERPLEDLALRLDHLGWVARGTGS, the protein stability index was 2.34.

Take SERPLEDLQLRLDHLGWVARGTGS: the protein stability index was found to be 2.26.

Regarding SERPLEDLPLRLDHLGWVARGTGS, the protein stability index worked out at 2.1.

As to SERPLEDLYLRLDHLGWVARGTGS, the protein stability index was found to be 2.26.

Consider SERPLEDLFLRLDHLGWVARGTGS, for which the protein stability index is 1.63.

For MERPLEDLRLRLDHLGWVARGTGS, the protein stability index worked out at 2.73.

Turning to CERPLEDLRLRLDHLGWVARGTGS, the protein stability index is 1.88.

With IERPLEDLRLRLDHLGWVARGTGS, the protein stability index was determined as 3.02.

With PERPLEDLRLRLDHLGWVARGTGS, the protein stability index was determined as 2.66.

For WERPLEDLRLRLDHLGWVARGTGS, the protein stability index worked out at 2.46.

GERPLEDLRLRLDHLGWVARGTGS: the protein stability index was 2.87.

With KERPLEDLRLRLDHLGWVARGTGS, the protein stability index came out at 2.61.

Take NERPLEDLRLRLDHLGWVARGTGS: the protein stability index was determined as 2.57.

As to EERPLEDLRLRLDHLGWVARGTGS, the protein stability index was found to be 2.74.

Turning to LERPLEDLRLRLDHLGWVARGTGS, the protein stability index came to 1.76.

Consider SERPLEDLRLNLDHLGWVARGTGS, for which the protein stability index was determined as 2.58.

SERPLEDLRLQLDHLGWVARGTGS: the protein stability index turned out to be 2.9.

Take SERPLEDLRLYLDHLGWVARGTGS: the protein stability index was 2.7.

With SERPLEDLRLCLDHLGWVARGTGS, the protein stability index was 1.52.

Consider SERPLEDLRLILDHLGWVARGTGS, for which the protein stability index came out at 1.41.

Regarding SERPLEDLRLTLDHLGWVARGTGS, the protein stability index turned out to be 2.28.

For the variant SERPLEDLRLFLDHLGWVARGTGS, the protein stability index was determined as 1.79.

With SERPLEDLRLWLDHLGWVARGTGS, the protein stability index is 1.4.

In the case of SERPLEDLRLALDHLGWVARGTGS, the protein stability index worked out at 1.92.
